Experimental data reported in patent US20220332804A1 (CSL INNOVATION, published 2022).

Legend:
Assay in all cases: SPR, antibody captured, C2 as analyte;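 note: biacore SPR at 37 °C, anti-C2 mAbs captured via goat anti-human IgG on CM5 chips, double-referenced sensorgrams fit to a 1:1 kinetic or steady-state model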
human C2 N327A = target: T1, human C2 N327A (human, UniProt P06681 21-752)
T1 sequence: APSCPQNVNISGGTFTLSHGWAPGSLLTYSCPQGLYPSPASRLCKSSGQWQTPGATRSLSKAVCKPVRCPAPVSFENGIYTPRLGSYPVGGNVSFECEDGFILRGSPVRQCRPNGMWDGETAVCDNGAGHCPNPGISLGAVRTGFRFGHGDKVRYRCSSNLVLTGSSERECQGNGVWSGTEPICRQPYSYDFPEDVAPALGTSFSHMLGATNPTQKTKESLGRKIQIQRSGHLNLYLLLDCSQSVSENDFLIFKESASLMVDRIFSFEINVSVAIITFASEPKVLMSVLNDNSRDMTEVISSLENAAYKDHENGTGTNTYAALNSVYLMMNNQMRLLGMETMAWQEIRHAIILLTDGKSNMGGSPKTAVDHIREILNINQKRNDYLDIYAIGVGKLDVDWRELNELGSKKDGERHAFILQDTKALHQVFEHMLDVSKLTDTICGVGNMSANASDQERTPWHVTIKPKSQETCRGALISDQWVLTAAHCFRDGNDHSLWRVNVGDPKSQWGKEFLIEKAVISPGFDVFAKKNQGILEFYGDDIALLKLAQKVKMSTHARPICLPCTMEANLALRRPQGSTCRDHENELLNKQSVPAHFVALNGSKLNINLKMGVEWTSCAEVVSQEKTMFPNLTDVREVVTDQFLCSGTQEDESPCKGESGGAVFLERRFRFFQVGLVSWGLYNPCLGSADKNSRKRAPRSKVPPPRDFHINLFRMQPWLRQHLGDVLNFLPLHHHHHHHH

human C2 D404A = target: T2, human C2 D404A (human, UniProt P06681 21-752)
T2 sequence: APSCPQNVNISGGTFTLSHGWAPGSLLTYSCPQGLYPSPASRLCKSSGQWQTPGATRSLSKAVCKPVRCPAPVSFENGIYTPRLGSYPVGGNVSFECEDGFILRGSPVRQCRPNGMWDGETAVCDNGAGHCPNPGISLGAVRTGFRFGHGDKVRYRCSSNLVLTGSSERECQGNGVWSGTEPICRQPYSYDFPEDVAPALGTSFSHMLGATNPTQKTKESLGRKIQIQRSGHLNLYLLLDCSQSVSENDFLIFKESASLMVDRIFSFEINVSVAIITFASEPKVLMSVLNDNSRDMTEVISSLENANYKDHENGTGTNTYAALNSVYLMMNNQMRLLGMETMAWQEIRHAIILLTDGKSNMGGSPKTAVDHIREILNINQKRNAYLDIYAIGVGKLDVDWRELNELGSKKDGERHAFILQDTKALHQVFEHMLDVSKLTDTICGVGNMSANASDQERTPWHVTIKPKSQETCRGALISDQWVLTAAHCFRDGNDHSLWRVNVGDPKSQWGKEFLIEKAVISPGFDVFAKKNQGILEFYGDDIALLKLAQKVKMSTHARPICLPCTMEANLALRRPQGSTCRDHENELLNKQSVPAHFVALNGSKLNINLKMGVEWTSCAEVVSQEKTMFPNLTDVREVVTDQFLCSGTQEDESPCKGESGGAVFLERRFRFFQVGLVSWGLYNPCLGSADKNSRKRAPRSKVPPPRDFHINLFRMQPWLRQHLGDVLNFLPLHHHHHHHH

human C2 K550A = target: T3, human C2 K550A (human, UniProt P06681 21-752)
T3 sequence: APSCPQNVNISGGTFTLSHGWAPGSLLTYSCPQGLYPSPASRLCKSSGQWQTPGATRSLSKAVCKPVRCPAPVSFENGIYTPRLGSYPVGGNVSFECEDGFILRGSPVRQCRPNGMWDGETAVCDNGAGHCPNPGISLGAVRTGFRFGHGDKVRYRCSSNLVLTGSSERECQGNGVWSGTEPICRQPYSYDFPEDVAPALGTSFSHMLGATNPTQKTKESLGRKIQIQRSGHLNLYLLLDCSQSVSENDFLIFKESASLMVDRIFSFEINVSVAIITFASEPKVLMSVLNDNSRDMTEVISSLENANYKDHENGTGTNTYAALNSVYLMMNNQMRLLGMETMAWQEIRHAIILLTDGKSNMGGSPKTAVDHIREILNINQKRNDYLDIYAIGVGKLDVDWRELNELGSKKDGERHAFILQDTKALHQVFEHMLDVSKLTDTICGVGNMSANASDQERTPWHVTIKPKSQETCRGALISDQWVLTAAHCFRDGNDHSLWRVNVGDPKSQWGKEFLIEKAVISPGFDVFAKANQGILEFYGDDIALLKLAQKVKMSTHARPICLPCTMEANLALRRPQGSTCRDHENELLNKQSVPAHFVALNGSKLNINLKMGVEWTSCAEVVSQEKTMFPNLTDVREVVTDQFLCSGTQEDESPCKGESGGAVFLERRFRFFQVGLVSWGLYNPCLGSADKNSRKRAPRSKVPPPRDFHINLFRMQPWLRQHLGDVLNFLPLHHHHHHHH

human C2 N325A = target: T4, human C2 N325A (human, UniProt P06681 21-752)
T4 sequence: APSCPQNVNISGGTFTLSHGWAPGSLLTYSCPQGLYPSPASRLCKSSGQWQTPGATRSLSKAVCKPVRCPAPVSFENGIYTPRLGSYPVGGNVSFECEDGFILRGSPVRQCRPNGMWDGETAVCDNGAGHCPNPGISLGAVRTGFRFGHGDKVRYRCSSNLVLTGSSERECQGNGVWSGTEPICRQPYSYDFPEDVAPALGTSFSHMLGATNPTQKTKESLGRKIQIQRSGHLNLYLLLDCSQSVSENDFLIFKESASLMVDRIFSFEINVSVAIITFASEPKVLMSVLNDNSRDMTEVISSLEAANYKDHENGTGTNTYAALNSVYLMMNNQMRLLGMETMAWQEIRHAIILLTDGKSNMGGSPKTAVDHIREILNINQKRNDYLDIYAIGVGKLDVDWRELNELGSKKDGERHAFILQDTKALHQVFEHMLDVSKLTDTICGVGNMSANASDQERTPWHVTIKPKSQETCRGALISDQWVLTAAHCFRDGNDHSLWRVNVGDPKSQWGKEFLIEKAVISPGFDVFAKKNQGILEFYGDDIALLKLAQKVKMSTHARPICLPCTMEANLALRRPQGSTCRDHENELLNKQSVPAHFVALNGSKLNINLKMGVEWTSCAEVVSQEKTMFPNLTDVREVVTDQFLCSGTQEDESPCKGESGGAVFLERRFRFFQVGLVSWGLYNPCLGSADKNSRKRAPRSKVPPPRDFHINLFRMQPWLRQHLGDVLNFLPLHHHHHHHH

B1: RF16-226 (antibody, human IgG4 S228P, lambda)
heavy: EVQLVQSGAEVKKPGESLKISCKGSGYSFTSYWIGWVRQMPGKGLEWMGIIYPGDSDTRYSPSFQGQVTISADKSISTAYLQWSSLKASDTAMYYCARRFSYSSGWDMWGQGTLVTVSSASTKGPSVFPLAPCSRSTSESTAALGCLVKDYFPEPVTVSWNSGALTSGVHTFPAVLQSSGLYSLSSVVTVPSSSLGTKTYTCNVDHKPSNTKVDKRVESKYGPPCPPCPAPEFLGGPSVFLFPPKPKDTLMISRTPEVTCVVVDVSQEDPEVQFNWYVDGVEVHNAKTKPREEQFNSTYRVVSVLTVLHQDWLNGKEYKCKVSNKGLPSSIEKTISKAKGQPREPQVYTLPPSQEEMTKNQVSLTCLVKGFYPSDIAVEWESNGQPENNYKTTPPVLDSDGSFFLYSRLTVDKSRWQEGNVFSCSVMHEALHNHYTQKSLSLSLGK
light: SYELTQPPSVSVSPGQTARITCSGDALTSKYVAWYQQKSGLAPLLVIYEDTRRPSGIPAKFSGSSSGSVATLTISGAHGDDEADYYCYSTDASGHQRVFGGGTKLTVLSQPKAAPSVTLFPPSSEELQANKATLVCLISDFYPGAVTVAWKADGSPVKAGVETTKPSKQSNNKYAASSYLSLTPEQWKSHRSYSCQVTHEGSTVEKTVAPTECS
notes: pH-dependent anti-C2 antibody from a phage display library; also called WT
B1 gave a Kd (human C2 N327A) of 67.4 nM, a Kd (human C2 D404A) of 12.8 nM and a Kd (human C2 K550A) of 15 nM. The Kd (human C2 N325A) was 51.3 nM.
